Results on six molecules are retold here after US20200283478A1 (Genentech, published 2020).

Square brackets hold non-standard residues; d marks the D form. hArg = N=C(N)NCCCC[C@H](N)C(=O)O

The target in test [1] is T1, His-tagged, full-length PCSK9 (human, UniProt Q8NBP7 31-692).
T1 construct: The secreted protein is autocleaved into a prodomain and a catalytic/Cys-rich chain that starts at S153; also called His-PCSK9
In words: TR-FRET competition; His-PCSK9, competitor EGF(A)-Fc.
Description: Signal generation in the PCSK9 binding assays was dependent upon the binding interaction to bring into close proximity the His-tag on the PCSK9 and the Fc-tag on the ligand. Anti-His-APC was bound to the His-tag, and anti-Fc-europium was bound to the Fc-tag.
Compounds were solubilized and dilutions were prepared in DMSO. […] The plate was centrifuged to mix the well contents and allowed to incubate for 30 min. […] The normalized TR-FRET ratios were plotted as a function of the compound concentrations, and the IC₅₀ values were determined using a 4-parameter logistic regression.

The next test addresses T2, His-tagged PCSK9Δhelix (human, UniProt Q8NBP7 31-152; Q8NBP7 168-692).
T2 construct: Construct M1-Q692 with engineered TEV site, cut by TEV protease; new N-terminus of the catalytic domain is S-A168; also called His-PCSK9Δhelix
In words: TR-FRET competition; His-PCSK9Δhelix, competitor Ab20.

T2 sequence (Q8NBP7 31-152, stated change not applied, chain 1 of 2): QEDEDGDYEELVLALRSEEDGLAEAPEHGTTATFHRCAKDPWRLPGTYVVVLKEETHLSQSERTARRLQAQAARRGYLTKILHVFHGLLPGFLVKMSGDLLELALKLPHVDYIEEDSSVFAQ
T2 sequence (Q8NBP7 other isoform, or with tags, fused parts or gaps mutant, chain 2 of 2): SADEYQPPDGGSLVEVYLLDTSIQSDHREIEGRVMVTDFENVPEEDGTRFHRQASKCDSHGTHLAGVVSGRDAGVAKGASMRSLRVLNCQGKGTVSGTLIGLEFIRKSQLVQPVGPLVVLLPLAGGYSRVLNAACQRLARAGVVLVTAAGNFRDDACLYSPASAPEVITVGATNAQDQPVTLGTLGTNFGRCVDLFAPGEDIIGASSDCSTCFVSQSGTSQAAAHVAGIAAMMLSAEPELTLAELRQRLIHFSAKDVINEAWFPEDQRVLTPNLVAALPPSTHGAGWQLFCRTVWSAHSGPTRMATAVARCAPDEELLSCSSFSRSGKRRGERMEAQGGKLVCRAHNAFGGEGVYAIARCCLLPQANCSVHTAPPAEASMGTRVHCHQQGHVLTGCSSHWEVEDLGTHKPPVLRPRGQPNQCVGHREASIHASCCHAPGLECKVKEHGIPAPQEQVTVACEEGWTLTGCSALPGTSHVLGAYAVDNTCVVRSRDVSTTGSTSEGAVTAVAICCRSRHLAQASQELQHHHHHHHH
T1 sequence (Q8NBP7 other isoform, or with tags, fused parts or gaps limits assumed): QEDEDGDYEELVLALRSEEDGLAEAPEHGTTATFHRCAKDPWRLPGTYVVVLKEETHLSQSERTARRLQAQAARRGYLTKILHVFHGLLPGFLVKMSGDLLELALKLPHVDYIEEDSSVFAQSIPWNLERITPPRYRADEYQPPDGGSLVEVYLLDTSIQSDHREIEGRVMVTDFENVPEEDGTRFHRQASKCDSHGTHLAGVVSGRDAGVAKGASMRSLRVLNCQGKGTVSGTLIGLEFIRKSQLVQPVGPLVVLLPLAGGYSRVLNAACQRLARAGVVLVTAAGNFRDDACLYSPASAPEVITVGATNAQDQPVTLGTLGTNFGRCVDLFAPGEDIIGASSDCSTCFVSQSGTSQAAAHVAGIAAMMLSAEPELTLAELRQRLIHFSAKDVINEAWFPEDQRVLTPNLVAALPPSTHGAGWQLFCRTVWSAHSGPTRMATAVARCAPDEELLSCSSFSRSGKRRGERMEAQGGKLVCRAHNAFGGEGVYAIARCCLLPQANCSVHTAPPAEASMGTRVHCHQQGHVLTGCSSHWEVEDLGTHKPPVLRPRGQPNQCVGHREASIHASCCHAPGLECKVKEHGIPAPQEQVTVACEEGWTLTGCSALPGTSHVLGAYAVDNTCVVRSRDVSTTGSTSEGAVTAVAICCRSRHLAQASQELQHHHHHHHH

B1: Compound 229 (peptide)
peptide: Ac-MESFPGWNLV[hArg]IGLLR-NH2
SMILES: CC[C@H](C)[C@H](NC(=O)[C@H](CCCCNC(=N)N)NC(=O)[C@@H](NC(=O)[C@H](CC(C)C)NC(=O)[C@H](CC(N)=O)NC(=O)[C@H](Cc1c[nH]c2ccccc12)NC(=O)CNC(=O)[C@@H]1CCCN1C(=O)[C@H](Cc1ccccc1)NC(=O)[C@H](CO)NC(=O)[C@H](CCC(=O)O)NC(=O)[C@H](CCSC)NC(C)=O)C(C)C)C(=O)NCC(=O)N[C@@H](CC(C)C)C(=O)N[C@@H](CC(C)C)C(=O)N[C@@H](CCCNC(=N)N)C(N)=O
Consider B1, for which the IC50 turned out to be 0.81 µM in test [1] and 8.1 µM in the test with His-tagged PCSK9Δhelix.

B2: Compound 233 (peptide)
peptide: Ac-MESFPGWNLK[hArg]IGLLR-NH2
SMILES: CC[C@H](C)[C@H](NC(=O)[C@H](CCCCNC(=N)N)NC(=O)[C@H](CCCCN)NC(=O)[C@H](CC(C)C)NC(=O)[C@H](CC(N)=O)NC(=O)[C@H](Cc1c[nH]c2ccccc12)NC(=O)CNC(=O)[C@@H]1CCCN1C(=O)[C@H](Cc1ccccc1)NC(=O)[C@H](CO)NC(=O)[C@H](CCC(=O)O)NC(=O)[C@H](CCSC)NC(C)=O)C(=O)NCC(=O)N[C@@H](CC(C)C)C(=O)N[C@@H](CC(C)C)C(=O)N[C@@H](CCCNC(=N)N)C(N)=O
For B2, the IC50 in test [1] stood at 3.1 µM; in the test with His-tagged PCSK9Δhelix it was 50 µM.

B3: Compound 227 (peptide)
peptide: Ac-ESFPGWNLV[hArg]IGLLR-NH2
SMILES: CC[C@H](C)[C@H](NC(=O)[C@H](CCCCNC(=N)N)NC(=O)[C@@H](NC(=O)[C@H](CC(C)C)NC(=O)[C@H](CC(N)=O)NC(=O)[C@H](Cc1c[nH]c2ccccc12)NC(=O)CNC(=O)[C@@H]1CCCN1C(=O)[C@H](Cc1ccccc1)NC(=O)[C@H](CO)NC(=O)[C@H](CCC(=O)O)NC(C)=O)C(C)C)C(=O)NCC(=O)N[C@@H](CC(C)C)C(=O)N[C@@H](CC(C)C)C(=O)N[C@@H](CCCNC(=N)N)C(N)=O
For B3, the concentration for half-maximal inhibition (IC50) in test [1] turned out to be 2.5 µM; with His-tagged PCSK9Δhelix, 24 µM.

B4: Compound 230 (peptide)
peptide: Ac-DSYPGWNLV[hArg]IGLLR-NH2
SMILES: CC[C@H](C)[C@H](NC(=O)[C@H](CCCCNC(=N)N)NC(=O)[C@@H](NC(=O)[C@H](CC(C)C)NC(=O)[C@H](CC(N)=O)NC(=O)[C@H](Cc1c[nH]c2ccccc12)NC(=O)CNC(=O)[C@@H]1CCCN1C(=O)[C@H](Cc1ccc(O)cc1)NC(=O)[C@H](CO)NC(=O)[C@H](CC(=O)O)NC(C)=O)C(C)C)C(=O)NCC(=O)N[C@@H](CC(C)C)C(=O)N[C@@H](CC(C)C)C(=O)N[C@@H](CCCNC(=N)N)C(N)=O
For B4, the IC50 worked out at 2.3 µM in test [1] and 24 µM with His-tagged PCSK9Δhelix.

B5: Compound 228 (peptide)
peptide: Ac-SFAFPGWNLV[hArg]IGLLR-NH2
SMILES: CC[C@H](C)[C@H](NC(=O)[C@H](CCCCNC(=N)N)NC(=O)[C@@H](NC(=O)[C@H](CC(C)C)NC(=O)[C@H](CC(N)=O)NC(=O)[C@H](Cc1c[nH]c2ccccc12)NC(=O)CNC(=O)[C@@H]1CCCN1C(=O)[C@H](Cc1ccccc1)NC(=O)[C@H](C)NC(=O)[C@H](Cc1ccccc1)NC(=O)[C@H](CO)NC(C)=O)C(C)C)C(=O)NCC(=O)N[C@@H](CC(C)C)C(=O)N[C@@H](CC(C)C)C(=O)N[C@@H](CCCNC(=N)N)C(N)=O
Turning to B5, the IC50 in test [1] was determined as 1.3 µM; in the test with His-tagged PCSK9Δhelix, 13 µM.

B6: Compound 232 (peptide)
peptide: Ac-SFAFPGWNLK[hArg]IGLLR-NH2
SMILES: CC[C@H](C)[C@H](NC(=O)[C@H](CCCCNC(=N)N)NC(=O)[C@H](CCCCN)NC(=O)[C@H](CC(C)C)NC(=O)[C@H](CC(N)=O)NC(=O)[C@H](Cc1c[nH]c2ccccc12)NC(=O)CNC(=O)[C@@H]1CCCN1C(=O)[C@H](Cc1ccccc1)NC(=O)[C@H](C)NC(=O)[C@H](Cc1ccccc1)NC(=O)[C@H](CO)NC(C)=O)C(=O)NCC(=O)N[C@@H](CC(C)C)C(=O)N[C@@H](CC(C)C)C(=O)N[C@@H](CCCNC(=N)N)C(N)=O
As to B6, the half-maximal inhibitory concentration (IC50) was determined as 0.93 µM in test [1] and 13 µM with His-tagged PCSK9Δhelix.
